Consider one molecule from US20210361750A1, “Anti-Viral Lactoferrin Facemask” (priority 2020, published 2021).

Series [1] has as its system SARS-CoV-2. Conditions: patients with SARS-CoV-2, after oral administration; cited from earlier work.
Another series concerns Vero cells. Conditions: 10 mg/mL lactoferrin, incubated up to 72 hours.
In series [2] the test system is SARS-CoV-2. The experiment in a line: SARS-CoV-2 cytopathic effect inhibition by lactoferrin at various pH levels in Vero E6 cells. The class given is cell-based, SARS-CoV-2 (strain COV2019 Italy/INM11). Conditions: for average neutralizing titer: lactoferrin 10 mg/mL. (In general: Cytopathic effects are the visible damage that an infection or toxin causes in cultured cells.)

The subject of series [3] is SARS-CoV-2. The experiment in a line: Cyclodextrin testing: antiviral activity against SARS-CoV-2 in Vero E6 cells (CPE). The class given is cell-based. The conditions noted are these: pH 7; lactoferrin alone 10 mg/mL, cyclodextrin alone 10 mg/mL, or lactoferrin 5 mg/mL + cyclodextrin 10 mg/mL.
Another series deals with Vero E6 cells. Conditions: control without virus, 10 mg/mL.

B1: lactoferrin (protein, UniProt P02788 20-710, looked up)
Lactotransferrin: GRRRSVQWCAVSQPEATKCFQWQRNMRKVRGPPVSCIKRDSPIQCIQAIAENRADAVTLDGGFIYEAGLAPYKLRPVAAEVYGTERQPRTHYYAVAVVKKGGSFQLNELQGLKSCHTGLRRTAGWNVPIGTLRPFLNWTGPPEPIEAAVARFFSASCVPGADKGQFPNLCRLCAGTGENKCAFSSQEPYFSYSGAFKCLRDGAGDVAFIRESTVFEDLSDEAERDEYELLCPDNTRKPVDKFKDCHLARVPSHAVVARSVNGKEDAIWNLLRQAQEKFGKDKSPKFQLFGSPSGQKDLLFKDSAIGFSRVPPRIDSGLYLGSGYFTAIQNLRKSEEEVAARRARVVWCAVGEQELRKCNQWSGLSEGSVTCSSASTTEDCIALVLKGEADAMSLDGGYVYTAGKCGLVPVLAENYKSQQSSDPDPNCVDRPVEGYLAVAVVRRSDTSLTWNSVKGKKSCHTAVDRTAGWNIPMGLLFNQTGSCKFDEYFSQSCAPGSDPRSNLCALCIGDEQGENKCVPNSNERYYGYTGAFRCLAENAGDVAFVKDVTVLQNTDGNNNEAWAKDLKLADFALLCLDGKRKPVTEARSCHLAMAPNHAVVSRMDKVERLKQVLLHQQAKFGRNGSDCPDKFCLFQSETKNLLFNDNTECLARLHGKTTYEKYLGPQYVAGITNLKKCSTSPLLEACEFLRK
notes: stock solution in water at 10 mg/mL
As for B1, the “time to reduced severity and duration of disease” value in the series on SARS-CoV-2 [1] is 4 to 5 days. For the same molecule, the cellular cytotoxicity result in the series with Vero cells is “No cellular cytotoxicity”. Besides, the “inhibitory effect on viral infection in Vero cells” value in the series with SARS-CoV-2 [2] (cells pre-incubated with lactoferrin 0.313-10 mg/mL for one hour) is “showed an inhibitory effect”. For the same molecule, the average neutralizing titer in the series with SARS-CoV-2 [2] (pH 4) was determined as 452; in the series on SARS-CoV-2 [2] (pH 7), 40. The “lactoferrin concentration of maximum inhibitory effect” value in the series on SARS-CoV-2 [2] (pH 4, 5, and 6) is listed as 5 mg/mL. The antiviral efficacy entry with SARS-CoV-2 [2] (pH 7) was “consistent low efficacy”. Further, the “inhibitory effect on viral infection” value in the series on SARS-CoV-2 [2] (without the pre-incubation step, any pH) is “no inhibitory effect”. For the same molecule, the “antiviral activity (cytopathic effect)” value in the series with SARS-CoV-2 [3] is “did not show antiviral activity”. Further, the “cytopathic effect on the cells” value in the series on Vero E6 cells is listed as “neither the lactoferrin alone (10 mg/mL) or the cyclodextrin alone (10 mg/mL) had a cytopathic effect”.
